# Measurements published in US20180155451A1 (published 2018).
# T1: FcγRIIa type H extracellular domain with C-terminal His tag (human, UniProt P12318 34-217)
# T1 construct: extracellular domain; also called FcgRIIa H; FcγRIIa H
# T1 sequence (looked up): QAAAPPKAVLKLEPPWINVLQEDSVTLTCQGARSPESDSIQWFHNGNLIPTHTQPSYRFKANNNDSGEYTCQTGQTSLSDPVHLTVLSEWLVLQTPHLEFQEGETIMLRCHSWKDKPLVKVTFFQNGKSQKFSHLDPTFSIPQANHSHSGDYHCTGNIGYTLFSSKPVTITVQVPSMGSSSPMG
# T2: FcγRIIa type R extracellular domain with C-terminal His tag (human, UniProt P12318 34-217)
# T2 construct: extracellular domain; also called FcgRIIa R; FcγRIIa R
# T2 sequence (looked up): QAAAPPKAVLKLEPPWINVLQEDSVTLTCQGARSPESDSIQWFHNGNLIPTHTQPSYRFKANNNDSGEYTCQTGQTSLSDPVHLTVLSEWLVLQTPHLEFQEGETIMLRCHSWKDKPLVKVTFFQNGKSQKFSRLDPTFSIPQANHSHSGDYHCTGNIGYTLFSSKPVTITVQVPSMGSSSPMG
# T3: FcγRIIb extracellular domain with C-terminal His tag (human, UniProt P31994 43-217)
# T3 construct: extracellular domain; also called FcgRIIb
# T3 sequence (looked up): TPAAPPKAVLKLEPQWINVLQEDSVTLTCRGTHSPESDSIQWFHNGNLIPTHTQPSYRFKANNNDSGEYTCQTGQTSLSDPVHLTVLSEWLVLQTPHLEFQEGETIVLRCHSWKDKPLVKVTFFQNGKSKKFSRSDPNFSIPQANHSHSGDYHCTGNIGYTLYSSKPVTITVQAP
# Tests used:
# [1] = biological target: T4, FcγRIa extracellular domain with C-terminal His tag (human, UniProt P12314 16-292); assay: SPR (Biacore T100), ratio of KD values
# T4 construct: extracellular domain; also called FcgRIa; FcgRI
# Description: (§1) These antibodies were assessed for the binding activity to each FcγR according to the method described in Reference Example 2.
# (§2) Analysis of interaction between objective antibody and the FcγR was carried out using Biacore T100 (GE Healthcare). HBS-EP+ (GE Healthcare) was used as the running buffer, and the measurement temperature was set to 25° C. Chips produced by immobilizing the antigen peptide by the amine coupling method to a Series S Sencor Chip CM5 (GE Healthcare), or alternatively, chips produced by allowing preliminarily biotinylated antigen peptides to interact with and immobilize onto a Series S Sensor Chip SA (certified) (GE Healthcare) were used. Antibodies of interest were captured onto an antigen peptide-immobilized chip, and allowed to interact to each FcγR diluted with running buffer. To regenerate and repeatedly use the chip, the antibodies captured on the chip were washed off by reacting 10 mM glycine-HCl, pH 1.5.
# (§3) The FcγR-binding activity of each antibody was assessed primarily using as an indicator the FcγR-binding activity and dissociation constant for FcγR.
# [2] = biological target: T5, FcγRIIIa type F extracellular domain with C-terminal His tag (human, UniProt P08637 17-208); assay: SPR (Biacore T100), ratio of KD values
# T5 construct: extracellular domain; also called FcgRIIIa F; FcγRIIIa F
# Description: as §1, §2, §3
# [3] = biological target: T1, FcγRIIa type H extracellular domain …; assay: SPR (Biacore T100), ratio of KD values
# Description: as §1, §2, §3
# [4] = biological target: T2, FcγRIIa type R extracellular domain …; assay: SPR (Biacore T100), ratio of KD values
# Description: as §1, §2, §3
# [5] = biological target: T3, FcγRIIb extracellular domain with …; assay: SPR (Biacore T100), ratio of KD values
# Description: as §1, §2, §3
# [6] = biological target: T6, FcγRIIIa type V extracellular domain with C-terminal His tag (human, UniProt P08637 17-208); assay: SPR (Biacore T100), ratio of KD values
# T6 construct: extracellular domain; also called FcgRIIIa V; FcγRIIIa V
# Description: as §1, §2, §3
# [7] = biological target: T4, FcγRIa extracellular domain with …; assay: SPR (Biacore T100), antibody captured on antigen-peptide chip, FcγR analyte, 1:1 Langmuir fit
# Description: as §1, §2, §3
# [8] = biological target: T5, FcγRIIIa type F extracellular domain …; assay: as above
# Description: as §1, §2, §3
# [9] = biological target: T1, FcγRIIa type H extracellular domain …; assay: as above
# Description: as §1, §2, §3
# [10] = biological target: T2, FcγRIIa type R extracellular domain …; assay: as above
# Description: as §1, §2, §3
# [11] = biological target: T3, FcγRIIb extracellular domain with …; assay: as above
# Description: as §1, §2, §3
# [12] = biological target: T6, FcγRIIIa type V extracellular domain …; assay: as above
# Description: as §1, §2, §3
# T5 sequence (P08637 17-208): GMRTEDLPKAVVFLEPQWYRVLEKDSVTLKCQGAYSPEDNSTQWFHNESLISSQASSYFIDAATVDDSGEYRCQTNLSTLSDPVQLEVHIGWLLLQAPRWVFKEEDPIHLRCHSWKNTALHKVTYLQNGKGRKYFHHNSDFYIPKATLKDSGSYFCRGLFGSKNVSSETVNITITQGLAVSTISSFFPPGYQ
# T4 sequence (P12314 16-292): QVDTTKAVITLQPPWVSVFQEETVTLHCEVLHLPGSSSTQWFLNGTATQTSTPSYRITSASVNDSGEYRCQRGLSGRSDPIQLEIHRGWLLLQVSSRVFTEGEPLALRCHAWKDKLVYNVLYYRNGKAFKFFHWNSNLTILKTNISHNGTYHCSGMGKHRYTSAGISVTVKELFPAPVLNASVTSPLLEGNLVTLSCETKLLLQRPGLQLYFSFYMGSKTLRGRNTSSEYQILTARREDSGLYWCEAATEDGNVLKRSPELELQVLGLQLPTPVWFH
# T6 sequence (P08637 17-208 F176V): as the sequence (P08637 17-208) above, with F160V counted along it
KD ratio [1],KD ratio [2],KD ratio [3],KD ratio [4],KD ratio [5],KD ratio [6],Kd [7],Kd [8],Kd [9],Kd [10],Kd [11],Kd [12],Binder
1 fold (KD of GpH7-Kn033/GpH7-Hl033/GpL16-k0 divided by KD of this antibody),1 fold (KD of GpH7-Kn033/GpH7-Hl033/GpL16-k0 divided by KD of this antibody),1 fold (KD of GpH7-Kn033/GpH7-Hl033/GpL16-k0 divided by KD of this antibody),1 fold (KD of GpH7-Kn033/GpH7-Hl033/GpL16-k0 divided by KD of this antibody),1 fold (KD of GpH7-Kn033/GpH7-Hl033/GpL16-k0 divided by KD of this antibody),1 fold (KD of GpH7-Kn033/GpH7-Hl033/GpL16-k0 divided by KD of this antibody),0.069 nM,1600 nM,590 nM,740 nM,3600 nM,220 nM,"GpH7-Kn033/GpH7-Hl033/GpL16-k0 (antibody, human IgG1, kappa, Anti-glypican-3 IgG1 with knobs-into-holes alone; also called Kn033/Hl033) heavy 1: not shown heavy 2: not shown light: DIVMTQSPLSLPVTPGEPASISCQASESLVHSNRNTYLHWYLQKPGQSPQLLIYKVSNRFSGVPDRFSGSGSGTDFTLKISRVEAEDVGVYYCSQNTHVPPTFGQGTKVEIERTVAAPSVFIFPPSDEQLKSGTASVVCLLNNFYPREAKVQWKVDNALQSGNSQESVTEQDSKDSTYSLSSTLTLSKADYEKHKVYACEVTHQGLSSPVTKSFNRGEC"
24 fold (KD of GpH7-Kn033/GpH7-Hl033/GpL16-k0 divided by KD of this antibody),381 fold (KD of GpH7-Kn033/GpH7-Hl033/GpL16-k0 divided by KD of this antibody),1.2 fold (KD of GpH7-Kn033/GpH7-Hl033/GpL16-k0 divided by KD of this antibody),3 fold (KD of GpH7-Kn033/GpH7-Hl033/GpL16-k0 divided by KD of this antibody),8.2 fold (KD of GpH7-Kn033/GpH7-Hl033/GpL16-k0 divided by KD of this antibody),182 fold (KD of GpH7-Kn033/GpH7-Hl033/GpL16-k0 divided by KD of this antibody),0.0028 nM,4.1 nM,470 nM,250 nM,440 nM,1.2 nM,"GpH7-Kn032/GpH7-Hl032/GpL16-k0 (antibody, human IgG1, kappa, also called Kn032/Hl032) heavy 1: QVQLVQSGAEVKKPGASVTVSCKASGYTFTDYEMHWIRQPPGEGLEWIGAIDPKTGDTAYSESFQDRVTLTADKSTSTAYMELSSLTSEDTAVYYCTRFYSYTYWGQGTLVTVSSASTKGPSVFPLAPSSKSTSGGTAALGCLVKDYFPEPVTVSWNSGALTSGVHTFPAVLQSSGLYSLSSVVTVPSSSLGTQTYICNVNHKPSNTKVDKKVEPKSCDKTHTCPPCPAPELLGGPDVFLFPPKPKDTLMISRTPEVTCVVVDVSHEDPEVKFNWYVDGVEVHNAKTKPREEQYNSTYRVVSVLTVLHQDWLNGKEYKCKVSNKALPLPEEKTISKAKGQPREPQVCTLPPSRDELTKNQVSLWCLVKGFYPSDIAVEWESNGQPENNYKTTPPVLDSDGSFFLYSKLTVDKSRWQQGNVFSCSVMHEALHNHYTQKSLSLSP heavy 2: QVQLVQSGAEVKKPGASVTVSCKASGYTFTDYEMHWIRQPPGEGLEWIGAIDPKTGDTAYSESFQDRVTLTADKSTSTAYMELSSLTSEDTAVYYCTRFYSYTYWGQGTLVTVSSASTKGPSVFPLAPSSKSTSGGTAALGCLVKDYFPEPVTVSWNSGALTSGVHTFPAVLQSSGLYSLSSVVTVPSSSLGTQTYICNVNHKPSNTKVDKKVEPKSCDKTHTCPPCPAPELLGGPDVFLFPPKPKDTLMISRTPEVTCVVVDVSHEDPEVKFNWYVDGVEVHNAKTKPREEQYNSTYRVVSVLTVLHQDWLNGKEYKCKVSNKALPLPEEKTISKAKGQPREPQVYTLPPSRCELTKNQVSLSCAVKGFYPSDIAVEWESNGQPENNYKTTPPVLDSDGSFFLVSKLTVDKSRWQQGNVFSCSVMHEALHNHYTQKSLSLSP light: DIVMTQSPLSLPVTPGEPASISCQASESLVHSNRNTYLHWYLQKPGQSPQLLIYKVSNRFSGVPDRFSGSGSGTDFTLKISRVEAEDVGVYYCSQNTHVPPTFGQGTKVEIERTVAAPSVFIFPPSDEQLKSGTASVVCLLNNFYPREAKVQWKVDNALQSGNSQESVTEQDSKDSTYSLSSTLTLSKADYEKHKVYACEVTHQGLSSPVTKSFNRGEC"
6 fold (KD of GpH7-Kn033/GpH7-Hl033/GpL16-k0 divided by KD of this antibody),161 fold (KD of GpH7-Kn033/GpH7-Hl033/GpL16-k0 divided by KD of this antibody),22 fold (KD of GpH7-Kn033/GpH7-Hl033/GpL16-k0 divided by KD of this antibody),43 fold (KD of GpH7-Kn033/GpH7-Hl033/GpL16-k0 divided by KD of this antibody),16 fold (KD of GpH7-Kn033/GpH7-Hl033/GpL16-k0 divided by KD of this antibody),84 fold (KD of GpH7-Kn033/GpH7-Hl033/GpL16-k0 divided by KD of this antibody),0.012 nM,9.7 nM,27 nM,17 nM,230 nM,2.6 nM,"GpH7-Kn037/GpH7-Hl036/GpL16-k0 (antibody, human IgG1, kappa, also called Kn037/Hl036) heavy 1: QVQLVQSGAEVKKPGASVTVSCKASGYTFTDYEMHWIRQPPGEGLEWIGAIDPKTGDTAYSESFQDRVTLTADKSTSTAYMELSSLTSEDTAVYYCTRFYSYTYWGQGTLVTVSSASTKGPSVFPLAPSSKSTSGGTAALGCLVKDYFPEPVTVSWNSGALTSGVHTFPAVLQSSGLYSLSSVVTVPSSSLGTQTYICNVNHKPSNTKVDKKVEPKSCDKTHTCPPCPAPELLAGPDVFLFPPKPKDTLMISRTPEVTCVVVDVSHEDPEVKFNWYVDGVEVHNAKTKPREEQYNSTYRVVSVLTVLHQDWLNGKEYKCKVSNKALPAPEEKTISKAKGQPREPQVCTLPPSRDELTKNQVSLWCLVKGFYPSDIAVEWESNGQPENNYKTTPPVLDSDGSFFLYSKLTVDKSRWQQGNVFSCSVMHEALHNHYTQKSLSLSP heavy 2: QVQLVQSGAEVKKPGASVTVSCKASGYTFTDYEMHWIRQPPGEGLEWIGAIDPKTGDTAYSESFQDRVTLTADKSTSTAYMELSSLTSEDTAVYYCTRFYSYTYWGQGTLVTVSSASTKGPSVFPLAPSSKSTSGGTAALGCLVKDYFPEPVTVSWNSGALTSGVHTFPAVLQSSGLYSLSSVVTVPSSSLGTQTYICNVNHKPSNTKVDKKVEPKSCDKTHTCPPCPAPELLAGPDVFLFPPKPKDTLMISRTPEVTCVVVDVSHEDPEVKFNWYVDGVEVHNAKTKPREEQYNSTYRVVSVLTVLHQDWLNGKEYKCKVSNKALPAPEEKTISKAKGQPREPQVYTLPPSRCELTKNQVSLSCAVKGFYPSDIAVEWESNGQPENNYKTTPPVLDSDGSFFLVSKLTVDKSRWQQGNVFSCSVMHEALHNHYTQKSLSLSP light: DIVMTQSPLSLPVTPGEPASISCQASESLVHSNRNTYLHWYLQKPGQSPQLLIYKVSNRFSGVPDRFSGSGSGTDFTLKISRVEAEDVGVYYCSQNTHVPPTFGQGTKVEIERTVAAPSVFIFPPSDEQLKSGTASVVCLLNNFYPREAKVQWKVDNALQSGNSQESVTEQDSKDSTYSLSSTLTLSKADYEKHKVYACEVTHQGLSSPVTKSFNRGEC"
